{"source": "patent US20210388087A1", "about": "(Chugai, published 2021)", "binders": {"B1": {"name": "dBBDu193 (antibody, V domains shown)", "VH": "QVQLVESGGGLVQPGRSLRLSCAASGFTFSNAWMHWVRQAPGKGLEWVAQIKDRSNQYATYYAPSVKGRFTISRDDSKNSIYLQMNSLKTEDTAVYYCHYVHYSAASTLLPSFGVDAWGQGTTVTVSS", "VL": "DIVMTQSPLSLPVTPGEPASISCRSSQSLVHSNRNTYLHWYQQKPGQAPRLLIYKVSNRFSGVPDRFSGSGSGTDFTLKISRVEAEDVGVYYCGQGTQVPYTFGQGTKLEIK", "notes": "Human IgG1; light chain GLS3000 (kappa)"}, "B2": {"name": "dBBDu196 (antibody, V domains shown)", "VH": "B1 VH with S55G, Q57A, A59N, T60A, P64E, S104A, A105S, L109V, S112A", "VL": "B1 VL", "notes": "as for B1"}, "B3": {"name": "dBBDu199 (antibody, V domains shown)", "VH": "B1 VH with R54K, S55Q, N56S, Q57G, A59N, S104A, A105S, L109V, S112A", "VL": "B1 VL", "notes": "as for B1"}, "B4": {"name": "dBBDu202 (antibody, V domains shown)", "VH": "B1 VH with R54K, S55G, Q57A, T60A, L109V, S112A", "VL": "B1 VL", "notes": "as for B1"}, "B5": {"name": "dBBDu204 (antibody, V domains shown)", "VH": "B1 VH with Q57N, P64E, S104A, A105S, L109V, S112A", "VL": "B1 VL", "notes": "as for B1"}, "B6": {"name": "dBBDu205 (antibody, V domains shown)", "VH": "B1 VH with N56Q, Q57L, T60A, S104A, A105S, L109V, S112A", "VL": "B1 VL", "notes": "as for B1"}, "B7": {"name": "dBBDu222 (antibody, V domains shown)", "VH": "QVQLVESGGGLVQPGRSLRLSCAASGFTISSAWMHWVRQAPGKGLEWVAQIKDRANGYAAYYAPSVKGRFTISRDDSKNSIYLQMNSLKTEDTAVYYCRYVHYATAYDGFYGFGVDAWGQGTTVTVSS", "VL": "B1 VL", "notes": "as for B1"}, "B8": {"name": "dBBDu139 (antibody, V domains shown)", "VH": "QVQLVESGGGLVQPGRSLRLSCAASGFTFSNAWMHWVRQAPGKGLEWVAQIKDRGNAYNAYYAESVKGRFTISRDDSKNSIYLQMNSLKTEDTAVYYCRFVHYRHPLLHIQYGVDAWGQGTTVTVSS", "VL": "B1 VL", "notes": "as for B1"}, "B9": {"name": "dBBDu217 (antibody, V domains shown)", "VH": "QVQLVESGGGLVQPGRSLRLSCAASGFTFSNAWMHWVRQAPGKGLEWVAQIKDRQQGYATYYAPSVKGRFTISRDDSKNSIYLQMNSLKTEDTAVYYCRFVHYHLAGYGYYGVDAWGQGTTVTVSS", "VL": "B1 VL", "notes": "as for B1"}, "B10": {"name": "dBBDu174 (antibody, V domains shown)", "VH": "QVQLVESGGGLVQPGRSLRLSCAASGFTFSSAWMHWVRQAPGKGLEWVAQIKDRASAYNAYYAESVKGRFTISRDDSKNSIYLQMNSLKTEDTAVYYCRYVHYPSYVSFLPYYGVDAWGQGTTVTVSS", "VL": "B1 VL", "notes": "as for B1"}, "B11": {"name": "Du115/DUL008 (antibody, V domains shown)", "VH": "QVQLVESGGGLVQPGRSLRLSCAASGFTFSNAWMHWVRQAPGKGLEWVAQIKDKANSYNTYYAPSVKGRFTISRDDSKNSIYLQMNSLKTEDTAVYYCRYVHYGSSYGFLFAGYGVDAWGQGTTVTVSS", "VL": "DIVMTQSPLSLPVTPGEPASISCQSSEELLHANRKTYLHWYQQKPGQAPRLLIYKVQNRFSGVPDRFSGSGSGTDFTLKISRVEAEDVGVYYCAQGTATPFTFGQGTKLEIK"}, "B12": {"name": "Dual-Fab H183/L072 variant with single light chain mutation K50Y (Kabat) (antibody, name in Kabat numbering, V domains shown)", "VH": "B1 VH with R54K, S55G, Q57A, T60A, S104A, A105S, L109V, S112A", "VL": "B1 VL with R24Q, S25A, S28E, S32M, K55Y, S61P, G94A, Q98S, Y101F", "notes": "expressed as an antibody in Expi293 and purified on Protein A; also called dBBDu183H / dBBDu072L K50Y"}, "B13": {"name": "dBBDu217 (antibody, human IgG1, V domains shown)", "VH": "B9 VH", "VL": "B1 VL", "notes": "human IgG1; GLS3000 light chain"}, "B14": {"name": "dBBDu139 (antibody, human IgG1, V domains shown)", "VH": "B8 VH", "VL": "B1 VL", "notes": "as for B13"}, "B15": {"name": "dBBDu197 (antibody, human IgG1, V domains shown)", "VH": "B1 VH with Q57A, T60A, S104A, A105S, L109V, S112A", "VL": "B1 VL", "notes": "as for B13"}, "B16": {"name": "dBBDu167 (antibody, human IgG1, V domains shown)", "VH": "B1 VH with R54K, S55G, Q57L, T60A, S104A, A105S, S107G, T108G, L109G, S112G", "VL": "B1 VL", "notes": "as for B13"}, "B17": {"name": "dBBDu173 (antibody, human IgG1, V domains shown)", "VH": "QVQLVESGGGLVQPGRSLRLSCAASGFTFSNAWMHWVRQAPGKGLEWVAQIKDKGNLYAAYYAPSVKGRFTISRDDSKNSIYLQMNSLKTEDTAVYYCHYVHYASAGGGLSAYGVDAWGQGTTVTVSS", "VL": "B1 VL", "notes": "as for B13"}, "B18": {"name": "dBBDu181 (antibody, human IgG1, V domains shown)", "VH": "B17 VH with V48I, K54R, L57N, A59N, A60N, S105T, G107S, G108T, G109L, S111G", "VL": "B1 VL", "notes": "as for B13"}, "B19": {"name": "dBBDu186 (antibody, human IgG1, V domains shown)", "VH": "B1 VH with S104A, A105Q, L109V, S112A", "VL": "B1 VL", "notes": "as for B13"}, "B20": {"name": "dBBDu189 (antibody, human IgG1, V domains shown)", "VH": "B1 VH with V48I, S104A, A105Q, T108S", "VL": "B1 VL", "notes": "as for B13"}, "B21": {"name": "dBBDu193 (antibody, human IgG1, V domains shown)", "VH": "B1 VH", "VL": "B1 VL", "notes": "as for B13"}, "B22": {"name": "dBBDu196 (antibody, human IgG1, V domains shown)", "VH": "B17 VH with K54R, L57A, A59N, P64E, G107S, G108T, G109V, S111P, Y113F", "VL": "B1 VL", "notes": "as for B13"}, "B23": {"name": "dBBDu199 (antibody, human IgG1, V domains shown)", "VH": "B1 VH with R54K, S55Q, N56S, Q57G, A59N, S104A, A105S, L109V, S112A", "VL": "B1 VL", "notes": "as for B13"}, "B24": {"name": "dBBDu202 (antibody, human IgG1, V domains shown)", "VH": "B1 VH with R54K, S55G, Q57A, T60A, L109V, S112A", "VL": "B1 VL", "notes": "as for B13"}, "B25": {"name": "dBBDu204 (antibody, human IgG1, V domains shown)", "VH": "B1 VH with Q57N, P64E, S104A, A105S, L109V, S112A", "VL": "B1 VL", "notes": "as for B13"}, "B26": {"name": "dBBDu205 (antibody, human IgG1, V domains shown)", "VH": "B1 VH with N56Q, Q57L, T60A, S104A, A105S, L109V, S112A", "VL": "B1 VL", "notes": "as for B13"}, "B27": {"name": "dBBDu222 (antibody, human IgG1, V domains shown)", "VH": "B7 VH", "VL": "B1 VL", "notes": "as for B13"}, "B28": {"name": "dBBDu174 (antibody, human IgG1, V domains shown)", "VH": "B10 VH", "VL": "B1 VL", "notes": "as for B13"}, "B29": {"name": "dBBDu125 (antibody, human IgG1, V domains shown)", "VH": "QVQLVESGGGLVQPGRSLRLSCAASGFTFSIAWMHWVRQAPGKGLEWVAQIKDKVNGYTAYYAESVKGRFTISRDDSKNSIYLQMNSLKTEDTAVYYCRYVHYAAYYDVLGYGGVDAWGQGTTVTVSS", "VL": "B1 VL", "notes": "human IgG1; GLS3000 light chain; also called DXDU01_3 #019; DXDU01_3_#019"}, "B30": {"name": "dBBDu183 (antibody, human IgG1, V domains shown)", "VH": "B17 VH with L57A, G107S, G108T, G109V, S111P, Y113F", "VL": "B1 VL", "notes": "as for B13"}, "B31": {"name": "dBBDu179 (antibody, human IgG1, V domains shown)", "VH": "B1 VH with S104A, A105S, L109V, S112A", "VL": "B1 VL", "notes": "as for B13"}}, "note": "Residue numbers refer to the chain shown, from its start. In names and notes the source's numbering stands."}
{"molecular_target": "T1, human CD137-Fc (human, biotin-labeled)", "T1 construct": "if 90 already holds the Fc, drop the second piece; also called biotin-labeled human CD137 fused to human IgG1 Fc fragment; biotin-human CD137-Fc; not shown: human IgG1 Fc fragment", "assay": "bead ELISA on biotin-human CD137-Fc, 0 pmol free CD3e peptide"}
{"binder": "B1", "ELISA signal": 18200}
{"binder": "B2", "ELISA signal": 33100}
{"binder": "B3", "ELISA signal": 40900}
{"binder": "B4", "ELISA signal": 12100}
{"binder": "B5", "ELISA signal": 43700}
{"binder": "B6", "ELISA signal": 45200}
{"binder": "B7", "ELISA signal": 7190}
{"binder": "B8", "ELISA signal": 9440}
{"binder": "B9", "ELISA signal": 19100}
{"binder": "B10", "ELISA signal": 4800}
{"binder": "B11", "ELISA signal": 86200}
{"molecular_target": "T2, Human CD137 ECD (human)", "T2 construct": "also called human CD137 extracellular domain; hCD137", "assay": "SPR (Biacore), affinity of single-mutation variant against parental H183/L072", "units": {"fold change of affinity for CD137": "fold"}}
{"binder": "B12", "fold change of affinity for CD137": 0}
{"molecular_target": "T1, human CD137-Fc", "assay": "bead ELISA on biotin-human CD137-Fc, 125 vs 0 pmol free CD3e peptide;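 also: target captured on streptavidin-coated magnetic beads, signal read as fluorescence 2 min after adding APS-5 substrate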", "units": {"Signal decrease": "%"}}
{"binder": "B1", "Signal decrease": 87.5}
{"binder": "B2", "Signal decrease": 93.3}
{"binder": "B3", "Signal decrease": 94.2}
{"binder": "B4", "Signal decrease": 84}
{"binder": "B5", "Signal decrease": 95.7}
{"binder": "B6", "Signal decrease": 95.2}
{"binder": "B7", "Signal decrease": 55}
{"binder": "B8", "Signal decrease": 79.6}
{"binder": "B9", "Signal decrease": 87.3}
{"binder": "B10", "Signal decrease": 60.8}
{"binder": "B11", "Signal decrease": 97}
{"molecular_target": "T3, biotin-labeled human CD137 fused to human IgG1 Fc fragment (human, UniProt Q07011 24-186, biotin-labeled)", "T3 construct": "also called human CD137-Fc; biotin-human CD137-Fc; not shown: human IgG1 Fc fragment", "assay": "bead ELISA, 1250 ng IgG, S/N over biotin-human Fc"}
{"binder": "B13", "binding result": "binds"}
{"binder": "B14", "binding result": "binds"}
{"binder": "B15", "binding result": "binds"}
{"binder": "B16", "binding result": "binds"}
{"binder": "B17", "binding result": "binds"}
{"binder": "B18", "binding result": "binds"}
{"binder": "B19", "binding result": "binds"}
{"binder": "B20", "binding result": "binds"}
{"binder": "B21", "binding result": "binds"}
{"binder": "B22", "binding result": "binds"}
{"binder": "B23", "binding result": "binds"}
{"binder": "B24", "binding result": "binds"}
{"binder": "B25", "binding result": "binds"}
{"binder": "B26", "binding result": "binds"}
{"binder": "B27", "binding result": "binds"}
{"binder": "B28", "binding result": "binds"}
{"binder": "B29", "binding result": "binds"}
{"binder": "B30", "binding result": "binds"}
{"binder": "B31", "binding result": "binds"}
{"molecular_target": "T1, human CD137-Fc", "assay": "bead ELISA on biotin-human CD137-Fc with 125 pmol/well free CD3e peptide as competitor;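 also: Streptavidin-coated magnetic beads in blocking buffer as the capture surface, well signal read as fluorescence 2 min after adding APS-5 substrate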"}
{"binder": "B1", "ELISA signal": 2280}
{"binder": "B2", "ELISA signal": 2220}
{"binder": "B3", "ELISA signal": 2370}
{"binder": "B4", "ELISA signal": 1930}
{"binder": "B5", "ELISA signal": 1880}
{"binder": "B6", "ELISA signal": 2190}
{"binder": "B7", "ELISA signal": 3240}
{"binder": "B8", "ELISA signal": 1920}
{"binder": "B9", "ELISA signal": 2420}
{"binder": "B10", "ELISA signal": 1880}
{"binder": "B11", "ELISA signal": 2620}
